Measured values published in PMC9352551, “Energetic determinants of animal cell polarity regulator Par-3 interaction with the Par complex” (The Journal of Biological Chemistry, 2022).

T1: Par complex (his-Par-6, aPKC) (Drosophila, UniProt O97111 1-351; A1Z9X0 1-606)
T1 construct: Par-6, Drosophila, residues 1-351; atypical protein kinase C (aPKC), Drosophila, residues 1-606; Construct as in PMID 32084408; also called full Par complex; source: HEK 293F, transfected (pCMV), purified (Ni-NTA or cobalt resin, Source Q anion exchange)
T1 sequence (looked up) 1: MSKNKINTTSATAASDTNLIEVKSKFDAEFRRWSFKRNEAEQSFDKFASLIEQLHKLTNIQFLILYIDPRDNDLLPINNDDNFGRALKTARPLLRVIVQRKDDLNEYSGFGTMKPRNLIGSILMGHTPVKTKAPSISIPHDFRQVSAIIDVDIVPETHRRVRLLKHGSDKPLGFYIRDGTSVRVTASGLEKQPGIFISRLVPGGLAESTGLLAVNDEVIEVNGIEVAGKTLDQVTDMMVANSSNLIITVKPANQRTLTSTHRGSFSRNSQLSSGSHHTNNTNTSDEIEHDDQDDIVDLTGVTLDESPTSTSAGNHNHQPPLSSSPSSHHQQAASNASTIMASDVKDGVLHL
T1 sequence (looked up) 2: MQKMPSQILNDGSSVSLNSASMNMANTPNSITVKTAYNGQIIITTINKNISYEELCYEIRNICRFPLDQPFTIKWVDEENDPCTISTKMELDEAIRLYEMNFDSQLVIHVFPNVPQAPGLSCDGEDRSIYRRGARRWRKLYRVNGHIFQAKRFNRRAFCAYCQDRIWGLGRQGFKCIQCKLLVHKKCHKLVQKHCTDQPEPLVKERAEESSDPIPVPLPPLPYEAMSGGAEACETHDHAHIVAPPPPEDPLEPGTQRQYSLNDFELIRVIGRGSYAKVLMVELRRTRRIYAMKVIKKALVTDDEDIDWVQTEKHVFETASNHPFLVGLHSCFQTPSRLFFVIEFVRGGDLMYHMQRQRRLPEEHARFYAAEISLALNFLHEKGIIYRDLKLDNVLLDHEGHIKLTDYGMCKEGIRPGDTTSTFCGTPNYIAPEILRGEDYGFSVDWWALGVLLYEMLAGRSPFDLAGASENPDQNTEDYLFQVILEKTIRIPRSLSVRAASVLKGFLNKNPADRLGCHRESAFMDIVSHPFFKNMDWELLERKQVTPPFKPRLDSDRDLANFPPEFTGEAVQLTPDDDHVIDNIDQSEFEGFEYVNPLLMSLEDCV

T2: aPKC KD-PBM (Drosophila, UniProt A1Z9X0 259-606)
T2 construct: From pBH; also called his aPKC kinase domain-PBM; aPKC kinase domain–PBM; source: E. coli BL21 (DE3), his-purified (Ni-NTA) partially under denaturing conditions (8 M urea)
T2 sequence (looked up): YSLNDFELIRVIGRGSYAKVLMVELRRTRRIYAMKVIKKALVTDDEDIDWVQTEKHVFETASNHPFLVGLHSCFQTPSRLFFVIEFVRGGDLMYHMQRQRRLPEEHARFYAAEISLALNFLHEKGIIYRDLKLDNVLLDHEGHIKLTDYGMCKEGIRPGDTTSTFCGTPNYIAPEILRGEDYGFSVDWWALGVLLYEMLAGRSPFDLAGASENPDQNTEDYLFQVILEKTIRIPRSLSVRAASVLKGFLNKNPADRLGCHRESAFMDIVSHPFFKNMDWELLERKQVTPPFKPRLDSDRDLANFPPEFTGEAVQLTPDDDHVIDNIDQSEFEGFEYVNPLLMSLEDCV

B1: MBP-Par-3 PDZ1-APMΔPDZ2 (domain or fragment, Drosophila, UniProt O96782 309-987, looked up)
chain: DGEMLLIINEYGSPLGLTALPDKEHGGGLLVQHVEPGSRAERGQLRRDDRILEINGIKLIGLTESQVQEQLRRALESSELRVRVLRGDRNRRQQRDSKVADMVEVATVSPTRKPHAAPVGTSLQVANTAEQADQPAEKSAGVAVAPSVAPPAVPAAAAPAPPIPVQKSSSARSLFTHQQQSQLNESQHFIDAGSESAASNDSLPPSSNSWHSREELTLHIPVHDTEKAGLGVSVKGKTCSNLNASGSSASSGSNGLMKHDGDLGIFVKNVIHGGAASRDGRLRMNDQLLSVNGVSLRGQNNAEAMETLRRAMVNTPGKHPGTITLLVGRKILRSASSSDILDHSNSHSHSHSNSSGGSNSNGSGNNNNSSSNASDNSGATVIYLSPEKREQRCNGGGGGGSAGNEMNRWSNPVLDRLTGGICSSNSAQPSSQQSHQQQPHPSQQQQQQRRLPAAPVCSSAALRNESYYMATNDNWSPAQMHLMTAHGNTALLIEDDAEPMSPTLPARPHDGQHCNTSSANPSQNLAVGNQGPPINTVPGTPSTSSNFDATYSSQLSLETNSGVEHFSRDALGRRSISEKHHA
notes: Par-3 (Bazooka), Drosophila, residues 309-987 with residues 437-533 deleted; From pMAL; construct as in PMID 32084408; not shown: MBP, N-terminal, kept; His tag, C-terminal, kept
B2: GST-Par-3 PDZ1-2 (domain or fragment, Drosophila, UniProt O96782 309-533, looked up)
chain: DGEMLLIINEYGSPLGLTALPDKEHGGGLLVQHVEPGSRAERGQLRRDDRILEINGIKLIGLTESQVQEQLRRALESSELRVRVLRGDRNRRQQRDSKVADMVEVATVSPTRKPHAAPVGTSLQVANTRKLGRKIQIMLKKGPNGLGFSVTTRDNPAGAHCPIYIKNILPRGAAIEDGRLKPGDRLLEVDGTPMTGKTQTDVVAILRGMPAGATVRIVVSRQQEL
notes: Par-3 (Bazooka), Drosophila, residues 309-533; From pGEX
B3: GST-Par-3 PDZ2-3 (domain or fragment, Drosophila, UniProt O96782 444-741, looked up)
chain: QIMLKKGPNGLGFSVTTRDNPAGAHCPIYIKNILPRGAAIEDGRLKPGDRLLEVDGTPMTGKTQTDVVAILRGMPAGATVRIVVSRQQELAEQADQPAEKSAGVAVAPSVAPPAVPAAAAPAPPIPVQKSSSARSLFTHQQQSQLNESQHFIDAGSESAASNDSLPPSSNSWHSREELTLHIPVHDTEKAGLGVSVKGKTCSNLNASGSSASSGSNGLMKHDGDLGIFVKNVIHGGAASRDGRLRMNDQLLSVNGVSLRGQNNAEAMETLRRAMVNTPGKHPGTITLLVGRKILRSAS
notes: Par-3 (Bazooka), Drosophila, residues 444-741; From pGEX
B4: GST-Par-3 BR-PDZ2 (domain or fragment, Drosophila, UniProt O96782 426-533, looked up)
chain: PVGTSLQVANTRKLGRKIQIMLKKGPNGLGFSVTTRDNPAGAHCPIYIKNILPRGAAIEDGRLKPGDRLLEVDGTPMTGKTQTDVVAILRGMPAGATVRIVVSRQQEL
notes: Par-3 (Bazooka), Drosophila, residues 426-533 (basic region and PDZ2); From pGEX
B5: GST-Par-3 PDZ2 (domain or fragment, Drosophila, UniProt O96782 444-533, looked up)
chain: QIMLKKGPNGLGFSVTTRDNPAGAHCPIYIKNILPRGAAIEDGRLKPGDRLLEVDGTPMTGKTQTDVVAILRGMPAGATVRIVVSRQQEL
notes: Par-3 (Bazooka), Drosophila, residues 444-533; From pGEX; also called GST fused Par-3 PDZ2
B6: GST-Par-3 PDZ3 (domain or fragment, Drosophila, UniProt O96782 616-741, looked up)
chain: HSREELTLHIPVHDTEKAGLGVSVKGKTCSNLNASGSSASSGSNGLMKHDGDLGIFVKNVIHGGAASRDGRLRMNDQLLSVNGVSLRGQNNAEAMETLRRAMVNTPGKHPGTITLLVGRKILRSAS
notes: Par-3 (Bazooka), Drosophila, residues 616-741; From pGEX; also called GST fused Par-3 PDZ3
B7: GST-Par-3 BR-PDZ2-3 (domain or fragment, Drosophila, UniProt O96782 426-741, looked up)
chain: PVGTSLQVANTRKLGRKIQIMLKKGPNGLGFSVTTRDNPAGAHCPIYIKNILPRGAAIEDGRLKPGDRLLEVDGTPMTGKTQTDVVAILRGMPAGATVRIVVSRQQELAEQADQPAEKSAGVAVAPSVAPPAVPAAAAPAPPIPVQKSSSARSLFTHQQQSQLNESQHFIDAGSESAASNDSLPPSSNSWHSREELTLHIPVHDTEKAGLGVSVKGKTCSNLNASGSSASSGSNGLMKHDGDLGIFVKNVIHGGAASRDGRLRMNDQLLSVNGVSLRGQNNAEAMETLRRAMVNTPGKHPGTITLLVGRKILRSAS
notes: Par-3 (Bazooka), Drosophila, residues 426-741; From pGEX
B8: GST-Par-3 PDZ1-3 (domain or fragment, Drosophila, UniProt O96782 309-741, looked up)
chain: DGEMLLIINEYGSPLGLTALPDKEHGGGLLVQHVEPGSRAERGQLRRDDRILEINGIKLIGLTESQVQEQLRRALESSELRVRVLRGDRNRRQQRDSKVADMVEVATVSPTRKPHAAPVGTSLQVANTRKLGRKIQIMLKKGPNGLGFSVTTRDNPAGAHCPIYIKNILPRGAAIEDGRLKPGDRLLEVDGTPMTGKTQTDVVAILRGMPAGATVRIVVSRQQELAEQADQPAEKSAGVAVAPSVAPPAVPAAAAPAPPIPVQKSSSARSLFTHQQQSQLNESQHFIDAGSESAASNDSLPPSSNSWHSREELTLHIPVHDTEKAGLGVSVKGKTCSNLNASGSSASSGSNGLMKHDGDLGIFVKNVIHGGAASRDGRLRMNDQLLSVNGVSLRGQNNAEAMETLRRAMVNTPGKHPGTITLLVGRKILRSAS
notes: Par-3 (Bazooka), Drosophila, residues 309-741; From pGEX; also called Par-3 fragment containing its three PDZ domains
B9: Par-3 PDZ3 (his-purified, soluble) (domain or fragment, Drosophila, UniProt O96782 616-741, looked up)
chain: B6 chain
notes: Par-3 (Bazooka), Drosophila, residues 616-741; From pET19; source: E. coli BL21 (DE3), his-purified
B10: Par-3 PDZ2 (his-purified, soluble) (domain or fragment, Drosophila, UniProt O96782 444-533, looked up)
chain: B5 chain
notes: Par-3 (Bazooka), Drosophila, residues 444-533; From pET19; also called soluble PDZ2; source: E. coli BL21 (DE3), his-purified

Each binder was assayed against T1, Par complex (his-Par-6, aPKC) (assay: supernatant depletion assay; MBP-Par-3 (C-terminal his-tag, his-purified) on amylose resin (solid phase); soluble protein left in the supernatant quantified on a Coomassie gel; 10 min at 20 °C; 10 mM Hepes pH 7.5, 100 mM NaCl, 1 mM DTT, 200 μM ATP, 5 mM MgCl2, 0.1% Tween-20; 'apparent'). Settings: both partners purified.

Binding result, binds:
B1

Each binder was assayed against T2, aPKC KD-PBM (assay: supernatant depletion assay; GST-fused protein on glutathione agarose resin (solid phase, 'ligand'); soluble protein ('receptor') left in the supernatant at equilibrium quantified on a Coomassie gel; 1 h at 20 °C; 10 mM Hepes pH 7.5, 100 mM NaCl, 1 mM DTT, 200 μM ATP, 5 mM MgCl2, 0.1% Tween-20; single-site equation; 'apparent' for Par-3 variants that could bind more than one Par complex; ATP replaced with ADP in one …). Settings: both partners purified.

Binding result, binds:
B2, B3, B4, B5, B6, B7

The binders below were run against T1, Par complex (his-Par-6, aPKC) in the same assay as above. Settings: both partners purified.

Binding result, binds:
B2, B3, B4, B5, B6, B7, B8

These binders were tested against T2, aPKC KD-PBM (assay: pull-down; competition: GST-Par-3 PDZ2 or PDZ3 on glutathione resin with aPKC KD-PBM and the other PDZ domain as soluble competitor; room temperature, 30 to 60 min; 10 mM Hepes pH 7.5, 100 mM NaCl, 1 mM DTT, 200 μM ATP, 5 mM MgCl2, 0.1% Tween-20; Coomassie gel). Settings: both partners purified.

Binding result, binds:
B9, B10
